Article PMC6781449 (The Journal of Cell Biology, 2019)

Biological target: T1, GST-leupaxin FL (mouse, UniProt Q99N69 1-386)
T1 sequence (looked up): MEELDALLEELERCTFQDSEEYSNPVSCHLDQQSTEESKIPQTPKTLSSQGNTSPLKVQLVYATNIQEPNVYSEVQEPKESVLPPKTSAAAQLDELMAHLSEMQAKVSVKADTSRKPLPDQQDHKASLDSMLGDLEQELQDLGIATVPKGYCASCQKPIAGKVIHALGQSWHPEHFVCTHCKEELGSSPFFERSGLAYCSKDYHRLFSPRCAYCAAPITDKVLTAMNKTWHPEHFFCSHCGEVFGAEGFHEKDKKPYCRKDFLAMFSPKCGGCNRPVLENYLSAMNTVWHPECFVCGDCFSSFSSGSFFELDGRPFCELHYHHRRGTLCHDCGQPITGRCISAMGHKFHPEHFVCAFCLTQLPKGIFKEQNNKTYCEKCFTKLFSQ
Assay: pull-down

B1: HisSUMO-tagged kindlin-3 F0 domain (domain or fragment, UniProt Q8K1B8 1-97, looked up)
chain: MAGMKTASGDYIDSSWELRVFVGEEDPEAQSVTLRVTGESHIGGVLLKIVEEINRKQDWSDHAIWWEQKRQWLLQTHWTLDKYGILADARLFFGPQH
binding result: binds
